Test results published in paper PMC7986633 (Angewandte Chemie (International Ed. in English), 2021).

Assays:
native MS = biological target: the molecule itself; assay: native MS
SEC-MALS + other: SAXS = biological target: the molecule itself; assay: SEC-MALS + other: SAXS

Protein | stoichiometry N (native MS) | stoichiometry N (SEC-MALS + other: SAXS)
ACAD9 (residues 38–621), recombinant, purified (enzyme) AFAKELFLGKIKKKEVFPFPEVSQDELNEINQFLGPVEKFFTEEVDSRKIDQEGKIPDETLEKLKSLGLFGLQVPEEYGGLGFSNTMYSRLGEIISMDGSITVTLAAHQAIGLKGIILAGTEEQKAKYLPKLASGEHIAAFCLTEPASGSDAASIRSRATLSEDKKHYILNGSKVWITNGGLANIFTVFAKTEVVDSDGSVKDKITAFIVERDFGGVTNGKPEDKLGIRGSNTCEVHFENTKIPVENILGEVGDGFKVAMNILNSGRFSMGSVVAGLLKRLIEMTAEYACTRKQFNKRLSEFGLIQEKFALMAQKAYVMESMTYLTAGMLDQPGFPDCSIEAAMVKVFSSEAAWQCVSEALQILGGLGYTRDYPYERILRDTRILLIFEGTNEILRMYIALTGLQHAGRILTTRIHELKQAKVSTVMDTVGRRLRDSLGRTVDLGLTGNHGVVHPSLADSANKFEENTYCFGRTVETLLLRFGKTIMEEQLVLKRVANILINLYGMTAVLSRASRSIRIGLRNHDHEVLLANTFCVEAYLQNLFSLSQLDKYAPENLDEQIKKVSQQILEKRAYICAHPLDRTC | 2 | 
ECSITCTD (C‐terminal fragment of ECSIT, residues 248–431), purified (domain or fragment) PLPKDSTGAADPPQPHIVGIQSPDQQAALARHNPARPVFVEGPFSLWLRNKCVYYHILRADLLPPEEREVEETPEEWNLYYPMQLDLEYVRSGWDNYEFDINEVEEGPVFAMCMAGAHDQATMAKWIQGLQETNPTLAQIPVVFRLAGSTRELQTSSAGLEEPPLPEDHQEEDDNLQRQQQGQS | ≥ 4 | 2
